In patent CN113214399A (SHENZHEN INNOVA NANOBODI CO LTD, dated 2021):

T1: 重组AFP抗原 (甲胎蛋白, α-fetoprotein) (UniProt P02771 19-609, limits assumed)
T1 construct: Bought recombinant antigen used to immunise the alpaca
T1 sequence (looked up): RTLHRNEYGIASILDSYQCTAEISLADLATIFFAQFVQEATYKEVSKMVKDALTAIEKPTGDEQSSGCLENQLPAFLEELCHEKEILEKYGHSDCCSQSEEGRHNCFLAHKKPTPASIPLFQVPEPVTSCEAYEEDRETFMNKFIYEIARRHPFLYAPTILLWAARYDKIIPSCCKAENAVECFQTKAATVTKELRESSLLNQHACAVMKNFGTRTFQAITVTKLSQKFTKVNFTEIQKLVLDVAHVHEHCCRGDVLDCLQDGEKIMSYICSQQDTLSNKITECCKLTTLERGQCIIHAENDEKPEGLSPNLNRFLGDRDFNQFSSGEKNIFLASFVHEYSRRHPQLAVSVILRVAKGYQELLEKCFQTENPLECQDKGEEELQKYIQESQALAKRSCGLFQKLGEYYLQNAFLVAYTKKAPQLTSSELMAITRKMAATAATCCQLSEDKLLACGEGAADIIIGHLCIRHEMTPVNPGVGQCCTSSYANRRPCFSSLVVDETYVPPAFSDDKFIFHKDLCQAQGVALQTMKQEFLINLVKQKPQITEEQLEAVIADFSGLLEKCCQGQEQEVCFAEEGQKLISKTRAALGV

T2: 血清标本中的AFP抗原 (UniProt P02771 19-609)
T2 construct: AFP in serum samples, detected by the double-antibody sandwich assay; also called 质控血清AFP; 标准血清中的AFP
T2 sequence (looked up): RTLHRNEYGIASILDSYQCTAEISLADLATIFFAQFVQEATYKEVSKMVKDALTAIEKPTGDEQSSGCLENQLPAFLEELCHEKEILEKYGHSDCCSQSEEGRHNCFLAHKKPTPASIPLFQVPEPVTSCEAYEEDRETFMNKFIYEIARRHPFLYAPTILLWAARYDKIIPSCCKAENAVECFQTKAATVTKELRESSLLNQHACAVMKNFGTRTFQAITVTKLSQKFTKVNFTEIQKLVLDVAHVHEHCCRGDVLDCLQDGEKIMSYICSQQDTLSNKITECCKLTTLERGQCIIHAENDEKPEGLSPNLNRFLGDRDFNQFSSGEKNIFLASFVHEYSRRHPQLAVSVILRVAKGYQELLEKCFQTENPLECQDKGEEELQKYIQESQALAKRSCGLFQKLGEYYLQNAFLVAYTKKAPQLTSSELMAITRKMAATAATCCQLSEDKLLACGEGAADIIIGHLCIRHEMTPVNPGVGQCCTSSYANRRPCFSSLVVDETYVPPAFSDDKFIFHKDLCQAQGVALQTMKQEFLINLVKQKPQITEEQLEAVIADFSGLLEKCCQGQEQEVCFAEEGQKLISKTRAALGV

B1: 纳米抗体1C5 (VHH)
VHH: QVQLQESGGGLVQAGGSLRLSCKASERTFSSYSMAWYRQAPGKKREFVASISWDDERTYYTDSVKGRFTISRPNAKNTVYLQMNSLKPEDTAVYYCAVGGLSDGLGPSYDYWGQGTQVTVSS
B2: 带有化学发光区序列的纳米抗体1C5-HAP (other)
chain: QVQLQESGGGLVQAGGSLRLSCKASERTFSSYSMAWYRQAPGKKREFVASISWDDERTYYTDSVKGRFTISRPNAKNTVYLQMNSLKPEDTAVYYCAVGGLSDGLGPSYDYWGQGTQVTVSSGGGGSGGGGSGGGGSIIPVEEENPDFWNREAAEALGAAKKLQPAQTAAKNLIIFLGDGMGVSTVTAARILKGQKKDKLGPEIPLAMDRFPYVALSKTYNVDKHVPDSGATATAYLCGVKGNFQTIGLSAAARFNQCNTTRGNEVISVMNRAKKAGKSVGVVTTTRVQHASPAGTYAHTVNRNWYSDADVPASARQEGCQDIATQLISNMDIDVILGGGRKYMFRMGTPDPEYPDDYSQGGTRLDGKNLVQEWLAKRQGARYVWNRTELMQASLDPSVTHLMGLFEPGDMKYEIHRDSTLDPSLMEMTEAALRLLSRNPRGFFLFVEGGRIDHGHHESRAYRALTETIMFDDAIERAGQLTSEEDTLSLVTADHSHVFSFGGYPLRGSSIFGLAPGKARDRKAYTVLLYGNGPGYVLKDGARPDVTESESGSPEYRQQSAVPLDEETHAGEDVAVFARGPQAHLVHGVQEQTFIAHVMAFAACLEPYTACDLAPPAGTTD
notes: Expressed in 293 cells

How the values were obtained:
[1] = molecular target: T1, 重组AFP抗原 (甲胎蛋白, α-fetoprotein); experiment: Biacore sequential injection on immobilised antigen
血清标本中的AFP抗原 = molecular target: T2, 血清标本中的AFP抗原; experiment: Double-antibody sandwich chemiluminescence immunoassay, detection antibody

Binder | binding result [1] | binding result (血清标本中的AFP抗原)
B1 | binds | –
B2 | – | binds
